Measured values reported in paper PMC3172050, “Structural and functional properties of NH2-terminal domain, core domain, and COOH-terminal extension of αA- and αB-crystallins” (Molecular Vision, 2011).

B1: αB-crystallin core domain (residues 67-146) (domain or fragment, human, UniProt P02511 67-146, looked up)
chain: EMRLEKDRFSVNLDVKHFSPEELKVKVLGDVIEVHGKHEERQDEHGFISREFHRKYRIPADVDPLTITSSLSSDGVLTVN
notes: human αB-crystallin, core domain, residues 67-146; The pET 100D TOPO vector may add further N-terminal residues besides the His-tag; also called αB CD; not shown: His6, N-terminal, kept
B2: wild type αB-crystallin (natural protein, human, UniProt P02511 1-175, looked up)
chain: MDIAIHHPWIRRPFFPFHSPSRLFDQFFGEHLLESDLFPTSTSLSPFYLRPPSFLRAPSWFDTGLSEMRLEKDRFSVNLDVKHFSPEELKVKVLGDVIEVHGKHEERQDEHGFISREFHRKYRIPADVDPLTITSSLSSDGVLTVNGPRKQVSGPERTIPITREEKPAVTAAPKK
notes: human αB-crystallin, wild type; Subcloned into pET 100D TOPO; the vector may add further N-terminal residues besides the His-tag; also called WT αB; not shown: His6, N-terminal, kept
B3: αB-crystallin NH2-terminal domain (residues 1-66) (domain or fragment, human, UniProt P02511 1-66, looked up)
chain: MDIAIHHPWIRRPFFPFHSPSRLFDQFFGEHLLESDLFPTSTSLSPFYLRPPSFLRAPSWFDTGLS
notes: human αB-crystallin, NH2-terminal domain, residues 1-66; The pET 100D TOPO vector may add further N-terminal residues besides the His-tag; also called αB NTD; not shown: His6, N-terminal, kept

Columns and labels:
[1] = target: the molecule itself; assay: SEC-MALS; multiangle laser light scattering instrument (Wyatt) coupled to an HPLC system, called dynamic light scattering (MALS) by the paper; samples in 50 mM sodium phosphate pH 7.8, filtered through 0.22 um; 18 angles; absolute molar mass of each protein alone
[2] = target: the molecule itself; assay: SDS-PAGE with western blot (anti-His tag antibody); purified His-tagged WT αB on an SDS-PAGE gel; 50 kDa band beside the monomer, both immunoreactive with the anti-His antibody

Protein | binding result [1] | stoichiometry N [2]
B1 | binds | 
B2 |  | 2
B3 | binds | 
